Experiment [1] concerns the target T1, biotinylated recombinant human soluble TNFR1 (human, UniProt P19438 30-211, biotinylated (EZ-Link Sulfo-NHS-LC-Biotin), sites not stated).
T1 construct: extracellular domain; Captured on a streptavidin BIAcore chip; also called human sTNFR1; sTNFR1
T1 sequence (looked up): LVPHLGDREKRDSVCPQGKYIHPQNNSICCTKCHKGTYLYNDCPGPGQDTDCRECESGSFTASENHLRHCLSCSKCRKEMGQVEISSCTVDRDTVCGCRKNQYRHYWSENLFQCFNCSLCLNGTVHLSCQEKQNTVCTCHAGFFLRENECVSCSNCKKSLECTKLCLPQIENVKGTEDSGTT
In words: BIAcore (SPR), biotinylated human sTNFR1 on SA chip, dAb injected. The protocol:
(§1) To confirm the increase in accelerated stability four novel dAbs were also characterised according to the more extensive protocol described in example 1. In this protocol, the dAbs are incubated up to 48 h at 40° C., centrifuged and the remaining dAb in solution quantified using OD₂₈₀. […] To verify that the increase in stability is not at the expense of functional anti-TNFR1 activity of the dAb, the binding affinity to TNFR1 of the dAbs was determined by BIAcore, using biotinylated TNFR1 captured on a BIAcore SA chip. […] Therefore, these dAbs combine an increase in accelerated stability without compromising much on the affinity of the dAb for TNFR1.
TABLE 7 Accelerated stability and affinity for human sTNFR1 for novel anti-TNFR1 dAbs. Purified dAb was incubated at 1 mg/ml in PBS at 40° C. for the indicated amounts of time. After that time, the percentage of residual protein in solution was determined by OD280 determination. Affinity for sTNFR1 was determined by BIAcore using coated sTNFR1 and injecting the dAb as described.

Experiment [2] deals with T1, biotinylated recombinant human soluble …. In words: BIAcore (SPR), biotinylated TNFR1 on SA chip; reference value of DOM1h-574-156 (150 pM) described previously. The protocol:
as §1

For experiment [3], the target named is T2, human TNFR1 on human umbilical vein endothelial cells (HUVECs) (human, UniProt P19438 30-455).
T2 sequence (looked up): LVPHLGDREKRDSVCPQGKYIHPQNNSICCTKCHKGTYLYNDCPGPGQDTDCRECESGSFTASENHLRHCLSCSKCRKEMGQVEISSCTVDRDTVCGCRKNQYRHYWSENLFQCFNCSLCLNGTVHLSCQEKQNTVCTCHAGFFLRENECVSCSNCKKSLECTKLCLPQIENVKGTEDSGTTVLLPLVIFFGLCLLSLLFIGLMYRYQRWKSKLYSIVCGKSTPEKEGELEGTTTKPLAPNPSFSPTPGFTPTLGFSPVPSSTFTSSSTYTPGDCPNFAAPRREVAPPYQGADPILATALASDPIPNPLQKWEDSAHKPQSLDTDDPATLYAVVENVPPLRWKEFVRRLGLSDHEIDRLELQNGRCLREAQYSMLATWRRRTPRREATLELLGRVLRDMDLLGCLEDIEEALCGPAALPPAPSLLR
In words: cell-based or functional assay.

Experiment [4] concerns the target T1, biotinylated recombinant human soluble …. As to the kind of experiment: BIAcore (SPR), biotinylated human TNFR1 on streptavidin chip, fusion injected, mean of two experiments ± SD. The method, then:
The affinity of the anti-TNFR1/AlbudAb fusions for human TNFR1 was determined by BIAcore. Briefly, the anti-TNFR1 molecules were injected over a streptavidin BIAcore chip on which biotinylated, human TNFR1 had been immobilised. Association and dissociation were determined at different concentrations of injected anti-TNFR1. […] The affinity for human TNFR1 as determined by BIAcore of the anti-TNFR1/AlbudAb fusion is slightly higher to that determined for the single anti-TNFR1 dAb used in each of the combination constructs.
The binding affinities for binding to recombinant human TNFR1 were assessed by BIAcore™ analysis. Analysis was carried out using Streptavidin coated (SA) chips (BIAcore, cat no. BR-1000-32). An SA chip was coated at low density using biotinylated hTNFR1. Examined molecules were injected over this surface at […] concentrations, i.e. 32, 16 (twice), 8, 4, 2, 1 and 0.5 nM, in random order using a flow rate of 50 μl/min. Between individual injections the surface was regenerated back to baseline using 10 mM glycine pH 2.0. Data were corrected for instrument artefacts using double referencing. Experiments were carried out on a BIAcore™ 3000 machine and data were analysed using the BIAevaluation software version 4.1, kₒₙ and koff were simultaneously fitted using 1:1 Langmuir binding model. For fitting purposes, the concentration range 1-32 nM was used for the monomers, while 0.5-16 nM was used for the AlbudAb fusion molecules. The binding data fitted well to the 1:1 model for all tested molecules. All KD values were calculated from kₒₙ and koff rates. BIAcore™ runs were carried out at 25° C.

B1: DOM1h-574-188 (VHH)
VHH: EVQLLESGGGLVQPGGSLRLSCAASGFTFDKYSMGWVRQAPGKGLEWVSQISDTADRTYYAHSVKGRFTISRDNSKNTLYLQMNSLRAEDTAVYYCAIYTGRWVPFEYWGQGTLVTVSS
notes: Human VH immunoglobulin single variable domain (dAb), not camelid; also called anti-TNFR1 dAb DOM1h-574-188
For B1, in experiment [1], the Kd amounted to 0.35 nM. Moreover, the “fold change of affinity against the parent dAb DOM1h-574-156” value (shortened to “fold change of affinity”) in experiment [2] was not above 4 fold.

B2: DOM1h-574-214 (VHH)
VHH: EVQLLESGGGLVQPGGSLRLSCAASGFTFSKYSMGWVRQAPGKGLEWVSQISDTADRTYYADSVKGRFTISRDNSKNTLYLQMNSLRAEDTAVYYCAIYTGRWVPFEYWGQGTLVTVSS
notes: Human VH immunoglobulin single variable domain (dAb), not camelid; Monomer cloned in pDOM13 for expression in E. coli; also called anti-TNFR1 dAb DOM1h-574-214
Turning to B2, the Kd in experiment [1] stood at 0.58 nM. In experiment [2], the “fold change of affinity” value was not above 4 fold.

B3: DOM1h-574-196 (VHH)
VHH: EVQLLESGGGLVQPGGSLRLSCAASGFTFSKYSMGWVRQAPGKGLEWVSQISDTADRTYYAHSVKGRFTISRDNSKNTLYLQMNSLRAEDTAVYYCAIYTGRWEPFEYWGQGTLVTVSS
notes: Human VH immunoglobulin single variable domain (dAb), not camelid; Monomer cloned in pDOM13 for expression in E. coli; also called anti-TNFR1 dAb DOM1h-574-196
Consider B3, for which the Kd in experiment [1] was found to be 0.47 nM. Also, in experiment [2], the “fold change of affinity” value is not above 4 fold.

B4: DMS5544 (bispecific antibody)
chain: EVQLLESGGGLVQPGGSLRLSCAASGFTFDKYSMGWVRQAPGKGLEWVSQISDTADRTYYAHSVKGRFTISRDNSKNTLYLQMNSLRAEDTAVYYCAIYTGRWVPFEYWGQGTLVTVSSASTDIQMTQSPSSLSASVGDRVTITCRASRPIGTTLSWYQQKPGKAPKLLILWNSRLQSGVPSRFSGSGSGTDFTLTISSLQPEDFATYYCAQAGTHPTTFGQGTKVEIKR
notes: Single-chain genetic fusion of the anti-TNFR1 VH dAb DOM1h-574-188, linker AST and the anti-serum albumin Vk dAb DOM7h-11-3; also called DOM1h-574-188 - Ala-Ser-Thr - DOM7h-11-3; anti-TNFR1/AlbudAb fusion
In the case of B4, the “Mean EC50, inhibition of TNF-alpha-induced VCAM-1 expression in the HUVEC cell assay” value (shortened to “Mean EC50, inhibition”) in experiment [3] was determined as 4.83 nM. Also, the dissociation constant (Kd) in experiment [4] turned out to be 0.18 nM.

B5: DMS5542 (bispecific antibody)
chain: EVQLLESGGGLVQPGGSLRLSCAASGFTFSKYSMGWVRQAPGKGLEWVSQISDTADRTYYADSVKGRFTISRDNSKNTLYLQMNSLRAEDTAVYYCAIYTGRWVPFEYWGQGTLVTVSSASTDIQMTQSPSSLSASVGDRVTITCRASRPIGTTLSWYQQKPGKAPKLLILWNSRLQSGVPSRFSGSGSGTDFTLTISSLQPEDFATYYCAQAGTHPTTFGQGTKVEIKR
notes: Single-chain genetic fusion of the anti-TNFR1 VH dAb DOM1h-574-214, linker AST and the anti-serum albumin Vk dAb DOM7h-11-3; also called DOM1h-574-214 - Ala-Ser-Thr - DOM7h-11-3; anti-TNFR1/AlbudAb fusion
Consider B5, for which, in experiment [3], the “Mean EC50, inhibition” value is 6.23 nM. Besides, in experiment [4], the Kd is 0.202 nM.

B6: DMS5535 (bispecific antibody)
chain: EVQLLESGGGLVQPGGSLRLSCAASGFTFSKYSMGWVRQAPGKGLEWVSQISDTADRTYYAHSVKGRFTISRDNSKNTLYLQMNSLRAEDTAVYYCAIYTGRWEPFEYWGQGTLVTVSSASTDIQMTQSPSSLSASVGDRVTITCRASRPIGTTLSWYQQKPGKAPKLLILWNSRLQSGVPSRFSGSGSGTDFTLTISSLQPEDFATYYCAQAGTHPTTFGQGTKVEIKR
notes: Single-chain genetic fusion of the anti-TNFR1 VH dAb DOM1h-574-196, linker AST and the anti-serum albumin Vk dAb DOM7h-11-3; also called DOM1h-574-196 - Ala-Ser-Thr - DOM7h-11-3; anti-TNFR1/AlbudAb fusion
B6: the “Mean EC50, inhibition” value in experiment [3] is 5.79 nM. Besides, the Kd in experiment [4] is 0.277 nM.

Values taken from patent US20150210767A1 (GlaxoSmithKline, published 2015).
